Assay results: the supplement of paper PMC7877785
± gives the uncertainty stated by the source.

Test: self-splicing fitness, log relative to wild type (ln ratio); higher = more splicing; Tetrahymena group I intron in knt gene, E. coli kanamycin selection, DiMSum; sequences stand for … in CUCUCU…GGAGGGAAAAGUUAUCAGGCAUGCACCUGGUAGCUAGUCUUUAAACCAAUAGAUUGCAUCGGUUUAAAAGGCAAGACCGUCAAAUUGCGGGAAAGGGGUCAACAGCCGUUCAGUACCAAGUCUCAGGGGAAACUUUGAGAUGGCCUUGCAAAGGGUAUGGUAAUAAGCUGACGGACAUGGUCCUAACCACGCAGCCAAGUCCUAAGUCAACAGAUCUUCUGUUGAUAUGGAUGCAGUUCACAGACUAAAUGUCGGUCGGGGAAGAUGUAUUCUUCUCAUAAGAUAUAGUCGGACCUCUCCUUAAUGGGAGCUAGCGGAUGAAGUGAUGCAACACUGGAGCCGCUGGGAACUAAUUUGUAUGCGAAAGUAUAUUGAUUAGUUUUGGAGUACUCGUGGUCG
Outline: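 Colonies from six replicate transformations of E. coli BL21(DE3) were pooled and amplicon-sequenced on an Illumina HiSeq 2500. The library placed an intron with all eight P1ex-region nucleotides randomised inside the knt kanamycin-resistance gene on pET-22b(+), and cells grew overnight at 37°C or 30°C on LB agar with or without 25 μg/mL kanamycin (plus 100 μg/mL carbenicillin, 50 μM IPTG, 0.2% rhamnose). Fitness is the DiMSum error-weighted combination of wild-type-normalised replicate fold changes, kanamycin versus none.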

Q: With UGCUAGCAAUAUUACGAGGG as the sequence, how does the “self-splicing fitness (ln)” value (30 °C) read?
A: -2.22 ± 0.15

Q: What about the “self-splicing fitness (ln)” value (37 °C) of the same sequence?
A: -2.43 ± 0.19

Q: What does the source list for AUUAAGCAAUAUUACGUACG?
A: self-splicing fitness (ln) (30 °C): -1.15 ± 0.13; self-splicing fitness (ln) (37 °C): -0.777 ± 0.14

Q: Which results are given for GCGGAGCAAUAUUACGUAGG?
A: self-splicing fitness (ln) (30 °C): -4.18 ± 0.34; self-splicing fitness (ln) (37 °C): -0.489 ± 0.15

Q: What does the source list for AGUUAGCAAUAUUACGUGCC?
A: self-splicing fitness (ln) (30 °C): -0.977 ± 0.12; self-splicing fitness (ln) (37 °C): -0.145 ± 0.16

Q: For CCCGAGCAAUAUUACGAGUU, which “self-splicing fitness (ln)” value (30 °C) is on record?
A: -4.2 ± 0.19

Q: What about the “self-splicing fitness (ln)” value (37 °C) of the same sequence?
A: -2.29 ± 0.17

Q: For GUGUAGCAAUAUUACGAAAA, which “self-splicing fitness (ln)” value (30 °C) is on record?
A: -2.71 ± 0.4

Q: And the “self-splicing fitness (ln)” value (37 °C)?
A: -1.51 ± 0.29

Q: With UUUCAGCAAUAUUACGUCCU as the sequence, how does the “self-splicing fitness (ln)” value (30 °C) read?
A: -2.99 ± 0.42

Q: And the “self-splicing fitness (ln)” value (37 °C)?
A: -1.32 ± 0.28

Q: Which “self-splicing fitness (ln)” value (30 °C) does the source give for CCUCAGCAAUAUUACGAACU here?
A: -2.63 ± 0.37

Q: And the “self-splicing fitness (ln)” value (37 °C)?
A: -1.64 ± 0.38

Q: Which “self-splicing fitness (ln)” value (37 °C) does the source give for GUGAAGCAAUAUUACGUCAC here?
A: -2.47 ± 0.48

Q: Which “self-splicing fitness (ln)” value (30 °C) does the source give for ACCGAGCAAUAUUACGGGCC here?
A: -3.39 ± 0.17

Q: And the “self-splicing fitness (ln)” value (37 °C)?
A: -2.09 ± 0.15

Q: For GAUCAGCAAUAUUACGAAGU, which “self-splicing fitness (ln)” value (30 °C) is on record?
A: -1.17 ± 0.12

Q: And the “self-splicing fitness (ln)” value (37 °C)?
A: -0.265 ± 0.13

Q: Which “self-splicing fitness (ln)” value (30 °C) does the source give for CCUGAGCAAUAUUACGUCCA here?
A: -1.86 ± 0.28

Q: With ACGAAGCAAUAUUACGUUAG as the sequence, how does the “self-splicing fitness (ln)” value (30 °C) read?
A: -3.22 ± 0.12

Q: And the “self-splicing fitness (ln)” value (37 °C)?
A: -2.44 ± 0.16

Q: Which “self-splicing fitness (ln)” value (30 °C) does the source give for GUAGAGCAAUAUUACGAUUC here?
A: -0.192 ± 0.1

Q: What about the “self-splicing fitness (ln)” value (37 °C) of the same sequence?
A: 0.716 ± 0.14

Q: With CAUUAGCAAUAUUACGUUGC as the sequence, how does the “self-splicing fitness (ln)” value (30 °C) read?
A: -3.96 ± 0.19

Q: And the “self-splicing fitness (ln)” value (37 °C)?
A: -2.8 ± 0.19

Q: With CGUUAGCAAUAUUACGGAGC as the sequence, how does the “self-splicing fitness (ln)” value (30 °C) read?
A: -3.81 ± 0.47

Q: What about the “self-splicing fitness (ln)” value (37 °C) of the same sequence?
A: -1.35 ± 0.47

Q: With GACGAGCAAUAUUACGGGAU as the sequence, how does the “self-splicing fitness (ln)” value (30 °C) read?
A: -4.33 ± 0.28

Q: What about the “self-splicing fitness (ln)” value (37 °C) of the same sequence?
A: -1.74 ± 0.18

Q: With GAAUAGCAAUAUUACGUUUG as the sequence, how does the “self-splicing fitness (ln)” value (30 °C) read?
A: -1.61 ± 0.15

Q: What about the “self-splicing fitness (ln)” value (37 °C) of the same sequence?
A: -1.05 ± 0.15

Q: With AAUGAGCAAUAUUACGCGGG as the sequence, how does the “self-splicing fitness (ln)” value (30 °C) read?
A: -3.11 ± 0.3

Q: And the “self-splicing fitness (ln)” value (37 °C)?
A: -2.57 ± 0.25

Q: Which “self-splicing fitness (ln)” value (30 °C) does the source give for UACAAGCAAUAUUACGUAUU here?
A: -4.29 ± 0.19

Q: What about the “self-splicing fitness (ln)” value (37 °C) of the same sequence?
A: -2.32 ± 0.13

Q: Which “self-splicing fitness (ln)” value (30 °C) does the source give for GGGCAGCAAUAUUACGCCAG here?
A: -2.02 ± 0.1

Q: And the “self-splicing fitness (ln)” value (37 °C)?
A: -0.684 ± 0.13

Q: Which “self-splicing fitness (ln)” value (30 °C) does the source give for AUGUAGCAAUAUUACGACAC here?
A: -1.31 ± 0.14

Q: And the “self-splicing fitness (ln)” value (37 °C)?
A: -0.0916 ± 0.2

Q: What does the source list for ACCGAGCAAUAUUACGUAUG?
A: self-splicing fitness (ln) (30 °C): -3.56 ± 0.15; self-splicing fitness (ln) (37 °C): -2.28 ± 0.15

Q: With UGGUAGCAAUAUUACGAAGA as the sequence, how does the “self-splicing fitness (ln)” value (30 °C) read?
A: -1.45 ± 0.4

Q: And the “self-splicing fitness (ln)” value (37 °C)?
A: -2.3 ± 0.49

Q: With CGGCAGCAAUAUUACGUCCG as the sequence, how does the “self-splicing fitness (ln)” value (30 °C) read?
A: -2.03 ± 0.12

Q: And the “self-splicing fitness (ln)” value (37 °C)?
A: -2.92 ± 0.24

Q: For CAGUAGCAAUAUUACGGGGC, which “self-splicing fitness (ln)” value (30 °C) is on record?
A: -2.54 ± 0.15

Q: What about the “self-splicing fitness (ln)” value (37 °C) of the same sequence?
A: -2.55 ± 0.23

Q: Which “self-splicing fitness (ln)” value (30 °C) does the source give for UUAUAGCAAUAUUACGGUGU here?
A: -3.63 ± 0.31

Q: And the “self-splicing fitness (ln)” value (37 °C)?
A: -2.23 ± 0.3

Q: Which “self-splicing fitness (ln)” value (30 °C) does the source give for AAGAAGCAAUAUUACGAGUA here?
A: -0.78 ± 0.26

Q: What about the “self-splicing fitness (ln)” value (37 °C) of the same sequence?
A: -1.44 ± 0.21

Q: With ACCUAGCAAUAUUACGCUGG as the sequence, how does the “self-splicing fitness (ln)” value (30 °C) read?
A: -4.07 ± 0.35

Q: What about the “self-splicing fitness (ln)” value (37 °C) of the same sequence?
A: -2.53 ± 0.22

Q: What does the source list for AUUGAGCAAUAUUACGGCAU?
A: self-splicing fitness (ln) (30 °C): -1.17 ± 0.088; self-splicing fitness (ln) (37 °C): -0.323 ± 0.13

Q: With AUCUAGCAAUAUUACGAGUG as the sequence, how does the “self-splicing fitness (ln)” value (30 °C) read?
A: -1.41 ± 0.078

Q: And the “self-splicing fitness (ln)” value (37 °C)?
A: -1.32 ± 0.12

Q: With UUCUAGCAAUAUUACGCCGU as the sequence, how does the “self-splicing fitness (ln)” value (30 °C) read?
A: -2.06 ± 0.46

Q: And the “self-splicing fitness (ln)” value (37 °C)?
A: -0.835 ± 0.34

Q: With GUUCAGCAAUAUUACGCUCG as the sequence, how does the “self-splicing fitness (ln)” value (30 °C) read?
A: 0.167 ± 0.12

Q: What about the “self-splicing fitness (ln)” value (37 °C) of the same sequence?
A: 0.0872 ± 0.15

Q: With AGGUAGCAAUAUUACGACGG as the sequence, how does the “self-splicing fitness (ln)” value (30 °C) read?
A: -2.04 ± 0.02

Q: And the “self-splicing fitness (ln)” value (37 °C)?
A: -1.31 ± 0.037

Q: Which “self-splicing fitness (ln)” value (30 °C) does the source give for GGCAAGCAAUAUUACGACUG here?
A: -1.02 ± 0.12

Q: And the “self-splicing fitness (ln)” value (37 °C)?
A: -0.532 ± 0.17

Q: For CACGAGCAAUAUUACGUUAU, which “self-splicing fitness (ln)” value (30 °C) is on record?
A: -3.4 ± 0.19

Q: What about the “self-splicing fitness (ln)” value (37 °C) of the same sequence?
A: -3.62 ± 0.31

Q: What does the source list for CACUAGCAAUAUUACGGACG?
A: self-splicing fitness (ln) (30 °C): 0.105 ± 0.064; self-splicing fitness (ln) (37 °C): 0.332 ± 0.08

Q: Which results are given for GAUGAGCAAUAUUACGAUAU?
A: self-splicing fitness (ln) (30 °C): -3.81 ± 0.21; self-splicing fitness (ln) (37 °C): -2.58 ± 0.24

Q: With CCAAAGCAAUAUUACGAGUU as the sequence, how does the “self-splicing fitness (ln)” value (30 °C) read?
A: -4.72 ± 0.34

Q: What about the “self-splicing fitness (ln)” value (37 °C) of the same sequence?
A: -2.31 ± 0.16

Q: What does the source list for UUACAGCAAUAUUACGCUCC?
A: self-splicing fitness (ln) (30 °C): -1.45 ± 0.24; self-splicing fitness (ln) (37 °C): -1.3 ± 0.24

Q: For GAGCAGCAAUAUUACGAGGG, which “self-splicing fitness (ln)” value (37 °C) is on record?
A: -2.81 ± 0.38

Q: Which “self-splicing fitness (ln)” value (30 °C) does the source give for GCUUAGCAAUAUUACGGCCG here?
A: -1.9 ± 0.34

Q: What about the “self-splicing fitness (ln)” value (37 °C) of the same sequence?
A: -1.48 ± 0.36

Q: With UCCUAGCAAUAUUACGACCU as the sequence, how does the “self-splicing fitness (ln)” value (30 °C) read?
A: -3.41 ± 0.48

Q: What about the “self-splicing fitness (ln)” value (37 °C) of the same sequence?
A: -1.76 ± 0.31

Q: For AGACAGCAAUAUUACGAGGC, which “self-splicing fitness (ln)” value (30 °C) is on record?
A: -3.34 ± 0.23

Q: What about the “self-splicing fitness (ln)” value (37 °C) of the same sequence?
A: -2.82 ± 0.3

Q: Which “self-splicing fitness (ln)” value (30 °C) does the source give for CGCAAGCAAUAUUACGUAAC here?
A: -3.76 ± 0.23

Q: What about the “self-splicing fitness (ln)” value (37 °C) of the same sequence?
A: -2.31 ± 0.19

Q: Which “self-splicing fitness (ln)” value (30 °C) does the source give for GAGCAGCAAUAUUACGCUGG here?
A: -3 ± 0.16

Q: And the “self-splicing fitness (ln)” value (37 °C)?
A: -1.47 ± 0.16

Q: What does the source list for AACGAGCAAUAUUACGGUAA?
A: self-splicing fitness (ln) (30 °C): -4.2 ± 0.42; self-splicing fitness (ln) (37 °C): -2.47 ± 0.28

Q: Which “self-splicing fitness (ln)” value (30 °C) does the source give for UCCUAGCAAUAUUACGGUCG here?
A: -1.69 ± 0.14

Q: And the “self-splicing fitness (ln)” value (37 °C)?
A: -1.59 ± 0.17
